Data from patent US20250197493A1 (Eli Lilly, published 2025).

Legend:
Human LAG-3 ECD-His [1] = biological target: T1, Human LAG-3 ECD-His (human, UniProt P18627 23-449); test: SPR (Biacore), antibody captured, 25° C.
T1 construct: It was the analyte in SPR and the antigen in HDX-MS; also called human LAG-3 soluble extracellular domain (ECD); human LAG-3-His ECD
T1 sequence: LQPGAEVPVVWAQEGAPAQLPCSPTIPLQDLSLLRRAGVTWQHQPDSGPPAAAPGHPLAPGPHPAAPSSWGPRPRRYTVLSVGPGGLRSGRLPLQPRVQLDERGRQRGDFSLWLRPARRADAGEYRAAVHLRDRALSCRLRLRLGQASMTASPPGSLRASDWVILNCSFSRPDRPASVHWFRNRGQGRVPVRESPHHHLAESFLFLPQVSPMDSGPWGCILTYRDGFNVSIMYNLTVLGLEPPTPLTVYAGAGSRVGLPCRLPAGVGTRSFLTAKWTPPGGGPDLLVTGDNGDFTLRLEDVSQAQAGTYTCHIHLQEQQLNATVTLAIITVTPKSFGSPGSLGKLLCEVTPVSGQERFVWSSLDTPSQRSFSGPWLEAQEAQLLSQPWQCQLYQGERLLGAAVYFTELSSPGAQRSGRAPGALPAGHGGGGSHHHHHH
Description: (§1) Surface Plasmon Resonance (SPR) at 37° C. is performed to determine the binding kinetics and affinity of LAG-3 antibodies to human LAG-3 and/or cynomolgus monkey LAG-3. A Biacore® T200 (Cytiva, Marlborough, MA) was used to measure the binding kinetics and affinities of Antibody A to human LAG-3 soluble extracellular domain (ECD) SEQ ID NO: 59) and to cynomolgus LAG-3 ECD (ACROBiosystems, Cat #LA3-C82H3; SEQ ID NO: 59) by surface plasmon resonance. Samples were diluted in HBS-EP+ (10 mM Hepes, 150 mM NaCl, 3 mM EDTA, 0.05% Tween-20, pH 7.6) (Teknova Cat #H8022) with 5 g/L of BSA (Jackson ImmunoResearch Cat #001-000-161) running buffer. PrismA Series S Sensor chip (Cat #29650263) is purchased from Cytiva.
(§2) Binding was evaluated using multi-cycle kinetics by an antibody capture method. Each cycle was performed at either 37° C. or 25° C. at a flow rate of 10 μL/min for antibody capture to the PrismA chip and 100 μL/min for analyte association (with 120 sec contact time) and dissociation (900 sec). Each cycle consisted of the following steps: injection of antibody at 1 μg/mL in HBS-EP+ targeting Rmax values of 60 RU on flow cell, injection of analyte in HBS-EP+ (concentration range of 500 nM to 0.25 nM by two-fold serial dilution for human LAG-3-His ECD (SEQ ID NO: 59) followed by 900-second dissociation phase, and regeneration using 10 μL of 10 mM glycine hydrochloride, pH 1.5 over a 60-second contact time utilizing a 10 μL/min flow rate. All analyte concentrations were determined utilizing monomeric molecular weight (MW) values. Association rates (kₒₙ) and dissociation rates (koff) for LAG-3-ECD were evaluated using double referencing by flow-cell one reference subtraction in addition to 0 nM blank subtraction and fit to “1:1 (Langmuir) binding” model in the BIAevaluation software version 4.1. The dissociation constant (KD) was calculated from the binding kinetics according to the relationship KD=Koff/Kₒₙ. Stoichiometry=[RUₘₐₓ/RUcaptured]/[MWanalyte/MWantibody] where MW_{Antibody A} is 150 kDa. Values are reported as mean±standard deviation.

Cynomolgus LAG-3 ECD-His [2] = biological target: T2, Cynomolgus LAG-3 ECD-His (cynomolgus monkey); test: SPR (Biacore), antibody captured, 25° C.
T2 construct: Bought protein (ACROBiosystems); also called ACROBiosystems Cat #LA3-C82H3
T2 chain: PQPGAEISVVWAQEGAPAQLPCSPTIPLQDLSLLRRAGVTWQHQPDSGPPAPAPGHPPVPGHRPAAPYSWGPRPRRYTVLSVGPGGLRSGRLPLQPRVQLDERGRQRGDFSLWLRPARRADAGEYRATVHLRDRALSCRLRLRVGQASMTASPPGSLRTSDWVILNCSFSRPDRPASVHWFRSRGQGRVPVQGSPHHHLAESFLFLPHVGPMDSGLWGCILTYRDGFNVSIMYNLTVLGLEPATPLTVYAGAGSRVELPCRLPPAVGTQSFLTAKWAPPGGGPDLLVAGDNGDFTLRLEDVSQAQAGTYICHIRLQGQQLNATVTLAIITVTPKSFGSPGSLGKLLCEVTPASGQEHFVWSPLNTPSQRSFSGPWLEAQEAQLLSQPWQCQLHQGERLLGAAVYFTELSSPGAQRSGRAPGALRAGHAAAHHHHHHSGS
Description: as §1, §2

Human LAG-3 ECD-His [3] = biological target: T1, Human LAG-3 ECD-His; test: SPR (Biacore), antibody captured, 37° C.
Description: as §1, §2

Cynomolgus LAG-3 ECD-His [4] = biological target: T2, Cynomolgus LAG-3 ECD-His; test: SPR (Biacore), antibody captured, 37° C.
Description: as §1, §2

[5] = biological target: T3, cell membrane-expressed human LAG-3 (human, UniProt P18627 23-525); test: flow cytometry, SEB-activated human PBMCs, CD4 T cells, percent of cells bound
T3 construct: also called cell surface human LAG-3; hLAG-3
T3 sequence: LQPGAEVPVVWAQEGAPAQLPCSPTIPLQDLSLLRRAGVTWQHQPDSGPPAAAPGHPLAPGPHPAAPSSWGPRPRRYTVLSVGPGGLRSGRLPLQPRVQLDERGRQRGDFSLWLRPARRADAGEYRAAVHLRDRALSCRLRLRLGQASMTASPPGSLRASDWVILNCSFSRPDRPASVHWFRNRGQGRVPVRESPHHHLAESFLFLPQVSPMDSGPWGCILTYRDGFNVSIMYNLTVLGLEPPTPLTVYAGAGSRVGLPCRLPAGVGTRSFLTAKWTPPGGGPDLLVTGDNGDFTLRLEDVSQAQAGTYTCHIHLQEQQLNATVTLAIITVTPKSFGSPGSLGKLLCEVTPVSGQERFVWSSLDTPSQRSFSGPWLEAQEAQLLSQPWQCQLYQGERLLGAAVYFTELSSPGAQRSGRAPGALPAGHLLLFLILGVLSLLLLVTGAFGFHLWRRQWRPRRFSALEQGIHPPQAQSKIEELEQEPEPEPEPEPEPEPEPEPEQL
Description: (§3) Cells were incubated with a 12 point, 4-fold serial dilutions of Antibody A or Isotype hG1, starting at 100 μg/mL, in PBS+2% FBS for 30 minutes at 4° C. The samples were washed and stained with 1 μg/mL Alexa Fluor 647 AffiniPure F (ab′) 2 Fragment Goat Anti-Human IgG, Fcy fragment specific (Jackson Immuno Research 109-606-098) in PBS+2% FBS for 30 minutes at 4° C. After washing thoroughly human samples were stained with CD3 Biolegend #300424, CD4 Biolegend #300512, CD8 Biolegend #301006, PD-1 Biolegend 329906, non-competing LAG3 418611 conjugated in house BN20-2739-10, Live/Dead Near IR Invitrogen L34975A, CD19 Biolegend 302218, CD33 Biolegend 366614, and CD56 Biolegend 362512 in PBS+2% FBS for 30 minutes at 4° C. Cyno samples were stained with CD3 BD 557917, CD4 BD 566910, CD8 BD 557746, PD-1 Biolegend 329906, non-competing LAG3 418611 conjugated in house BN20-2739-10, and Live/Dead Near IR Invitrogen L34975A in PBS+2% FBS for 30 minutes at 4° C. Cells were washed and processed on a BioRad ZE5 cytometer and data was analyzed with FlowJo software (BD Biosciences). Percent of cells bound by the respective antibody is quantified and graphed with Prism (Graphpad, San Diego, CA).

[6] = biological target: T3, cell membrane-expressed human LAG-3; test: flow cytometry, SEB-activated human PBMCs, CD8 T cells, percent of cells bound
Description: as §3

[7] = biological target: T4, cell membrane-expressed cynomolgus LAG-3 (cynomolgus monkey); test: flow cytometry, SEB-activated cynomolgus PBMCs, CD4 T cells, percent of cells bound
T4 construct: whole, on cells; also called cell surface cynomolgus monkey LAG-3
Description: as §3

[8] = biological target: T4, cell membrane-expressed cynomolgus LAG-3; test: flow cytometry, SEB-activated cynomolgus PBMCs, CD8 T cells, percent of cells bound
Description: as §3

B1: Antibody A (antibody, human IgG1, kappa, V domains shown)
VH: QVQLQESGPGLVKPSQTLSLTCTVSGGSISSGGYYWSWIRQHPGKGLEWIGYIYYSGITYYNPSLKSRVTISVDTSKNQFSLKLSSVTAADTAVYYCARSAVTTPFDYWGQGTLVTVSS
VL: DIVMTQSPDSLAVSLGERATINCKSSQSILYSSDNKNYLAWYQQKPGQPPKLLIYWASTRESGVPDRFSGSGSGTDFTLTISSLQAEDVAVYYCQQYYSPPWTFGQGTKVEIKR
notes: Human IgG1 heavy chain, kappa light chain; also called anti-human LAG-3 agonist antibody
Question: How did the Kd (Human LAG-3 ECD-His [1]) turn out when B1 was run?
Answer: 140 pM

Question: What about the koff (Human LAG-3 ECD-His [1]) of the same binder?
Answer: 0.0012 s⁻¹

Question: And the kon (Human LAG-3 ECD-His [1])?
Answer: 8.3e+06 M⁻¹ s⁻¹

Question: What about the Kd (Cynomolgus LAG-3 ECD-His [2]) of the same binder?
Answer: 38 pM

Question: What about the koff (Cynomolgus LAG-3 ECD-His [2]) of the same binder?
Answer: 0.00015 s⁻¹

Question: What about the kon (Cynomolgus LAG-3 ECD-His [2]) of the same binder?
Answer: 3.9e+06 M⁻¹ s⁻¹

Question: What about the Kd (Human LAG-3 ECD-His [3]) of the same binder?
Answer: 64 pM

Question: What about the koff (Human LAG-3 ECD-His [3]) of the same binder?
Answer: 0.0013 s⁻¹

Question: What about the kon (Human LAG-3 ECD-His [3]) of the same binder?
Answer: 2.1e+07 M⁻¹ s⁻¹

Question: What about the Kd (Cynomolgus LAG-3 ECD-His [4]) of the same binder?
Answer: 130 pM

Question: And the koff (Cynomolgus LAG-3 ECD-His [4])?
Answer: 0.00035 s⁻¹

Question: What about the kon (Cynomolgus LAG-3 ECD-His [4]) of the same binder?
Answer: 2.7e+06 M⁻¹ s⁻¹

Question: What about the EC50 [5] of the same binder?
Answer: 0.0156 µg/mL

Question: And the EC50 [6]?
Answer: 0.0155 µg/mL

Question: And the EC50 [7]?
Answer: 0.857 µg/mL

Question: What about the EC50 [8] of the same binder?
Answer: 0.183 µg/mL
